In USRE49847 (dated 2024):

T1: soluble CD22-Fc (R&D Systems) (UniProt P20273 20-687)
T1 construct: Bought reagent used to stain CD22 CARs; not shown: Fc part; detected with anti-human IgG Fc-gamma secondary
T1 sequence (looked up): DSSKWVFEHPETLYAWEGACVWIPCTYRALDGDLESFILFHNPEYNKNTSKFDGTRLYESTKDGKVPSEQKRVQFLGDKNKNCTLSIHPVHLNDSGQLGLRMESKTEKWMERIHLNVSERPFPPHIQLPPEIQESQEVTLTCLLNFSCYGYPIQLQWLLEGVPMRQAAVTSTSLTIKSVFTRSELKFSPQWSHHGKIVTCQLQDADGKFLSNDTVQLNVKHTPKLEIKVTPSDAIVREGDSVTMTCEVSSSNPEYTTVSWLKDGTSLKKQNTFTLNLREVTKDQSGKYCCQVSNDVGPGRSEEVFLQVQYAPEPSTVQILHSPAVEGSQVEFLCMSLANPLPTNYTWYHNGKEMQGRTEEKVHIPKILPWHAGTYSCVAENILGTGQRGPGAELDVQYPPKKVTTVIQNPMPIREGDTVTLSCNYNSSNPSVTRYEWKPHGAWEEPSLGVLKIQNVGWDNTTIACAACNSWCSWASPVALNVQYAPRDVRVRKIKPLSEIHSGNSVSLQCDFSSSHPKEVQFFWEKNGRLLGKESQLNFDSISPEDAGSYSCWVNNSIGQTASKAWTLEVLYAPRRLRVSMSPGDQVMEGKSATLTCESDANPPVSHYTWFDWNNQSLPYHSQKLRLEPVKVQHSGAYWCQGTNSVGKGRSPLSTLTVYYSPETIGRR


These binders were tested against T1, soluble CD22-Fc (R&D Systems) (assay: FACS surface staining of transduced JNL cells with CD22-Fc).

Binder	binding result
control anti-CD22 CAR CAR22-65 (other, also called CAR22-65 Long; not shown: hinge, transmembrane, 4-1BB and CD3zeta parts of the CAR) EVQLQQSGPGLVKPSQTLSLTCAISGDSMLSNSDTWNWIRQSPSRGLEWLGRTYHRSTWYDDYASSVRGRVSINVDTSKNQYSLQLNAVTPEDTGVYYCARVRLQDGNSWSDAFDVWGQGTMVTVSSGGGGSGGGGSGGGGSQSALTQPASASGSPGQSVTISCTGTSSDVGGYNYVSWYQQHPGKAPKLMIYDVSNRPSGVSNRFSGSKSGNTASLTISGLQAEDEADYYCSSYTSSSTLYVFGTGTQLTVL	binds
tandem CD19/CD22 CAR construct 171 (other, Distal anti-CD19 scFv, LAEAAAK, proximal anti-CD22 scFv H/L; also called CG#c171; c171) EIVMTQSPATLSLSPGERATLSCRASQDISKYLNWYQQKPGQAPRLLIYHTSRLHSGIPARFSGSGSGTDYTLTISSLQPEDFAVYFCQQGNTLPYTFGQGTKLEIKGGGGSGGGGSGGGGSQVQLQESGPGLVKPSETLSLTCTVSGVSLPDYGVSWIRQPPGKGLEWIGVIWGSETTYYQSSLKSRVTISKDNSKNQVSLKLSSVTAADTAVYYCAKHYYYGGSYAMDYWGQGTLVTVSSLAEAAAKEVQLQQSGPGLVKPSQTLSLTCAISGDSMLSNSDTWNWIRQSPSRGLEWLGRTYHRSTWYDDYASSVRGRVSINVDTSKNQYSLQLNAVTPEDTGVYYCARVRLQDGNSWSDAFDVWGQGTMVTVSSGGGGSGGGGSGGGGSQSALTQPASASGSPGQSVTISCTGTSSDVGGYNYVSWYQQHPGKAPKLMIYDVSNRPSGVSNRFSGSKSGNTASLTISGLQAEDEADYYCSSYTSSSTLYVFGTGTQLTVLTTTPAPRPPTPAPTIASQPLSLRPEACRPAAGGAVHTRGLDFACDIYIWAPLAGTCGVLLLSLVITLYCKRGRKKLLYIFKQPFMRPVQTTQEEDGCSCRFPEEEEGGCELRVKFSRSADAPAYQQGQNQLYNELNLGRREEYDVLDKRRGRDPEMGGKPRRKNPQEGLYNELQKDKMAEAYSEIGMKGERRRGKGHDGLYQGLSTATKDTYDALHMQALPPR	binds
tandem CD19/CD22 CAR construct 172 (other, Distal anti-CD19 scFv, GGGGS, proximal anti-CD22 scFv H/L; leader 1-21 left out; end of range counted without it; also called CG#c172; c172) EIVMTQSPATLSLSPGERATLSCRASQDISKYLNWYQQKPGQAPRLLIYHTSRLHSGIPARFSGSGSGTDYTLTISSLQPEDFAVYFCQQGNTLPYTFGQGTKLEIKGGGGSGGGGSGGGGSQVQLQESGPGLVKPSETLSLTCTVSGVSLPDYGVSWIRQPPGKGLEWIGVIWGSETTYYQSSLKSRVTISKDNSKNQVSLKLSSVTAADTAVYYCAKHYYYGGSYAMDYWGQGTLVTVSSGGGGSEVQLQQSGPGLVKPSQTLSLTCAISGDSMLSNSDTWNWIRQSPSRGLEWLGRTYHRSTWYDDYASSVRGRVSINVDTSKNQYSLQLNAVTPEDTGVYYCARVRLQDGNSWSDAFDVWGQGTMVTVSSGGGGSGGGGSGGGGSQSALTQPASASGSPGQSVTISCTGTSSDVGGYNYVSWYQQHPGKAPKLMIYDVSNRPSGVSNRFSGSKSGNTASLTISGLQAEDEADYYCSSYTSSSTLYVFGTGTQLTVLTTTPAPRPPTPAPTIASQPLSLRPEACRPAAGGAVHTRGLDFACDIYIWAPLAGTCGVLLLSLVITLYCKRGRKKLLYIFKQPFMRPVQTTQEEDGCSCRFPEEEEGGCELRVKFSRSADAPAYQQGQNQLYNELNLGRREEYDVLDKRRGRDPEMGGKPRRKNPQEGLYNELQKDKMAEAYSEIGMKGERRRGKGHDGLYQGLSTATKDTYDALHMQALPPR	binds
tandem CD19/CD22 CAR construct 173 (other, Distal anti-CD19 scFv, LAEAAAK, proximal anti-CD22 scFv H/L with short linker; leader 1-21 left out; also called CG#c173; c173) EIVMTQSPATLSLSPGERATLSCRASQDISKYLNWYQQKPGQAPRLLIYHTSRLHSGIPARFSGSGSGTDYTLTISSLQPEDFAVYFCQQGNTLPYTFGQGTKLEIKGGGGSGGGGSGGGGSQVQLQESGPGLVKPSETLSLTCTVSGVSLPDYGVSWIRQPPGKGLEWIGVIWGSETTYYQSSLKSRVTISKDNSKNQVSLKLSSVTAADTAVYYCAKHYYYGGSYAMDYWGQGTLVTVSSLAEAAAKEVQLQQSGPGLVKPSQTLSLTCAISGDSMLSNSDTWNWIRQSPSRGLEWLGRTYHRSTWYDDYASSVRGRVSINVDTSKNQYSLQLNAVTPEDTGVYYCARVRLQDGNSWSDAFDVWGQGTMVTVSSGGGGSQSALTQPASASGSPGQSVTISCTGTSSDVGGYNYVSWYQQHPGKAPKLMIYDVSNRPSGVSNRFSGSKSGNTASLTISGLQAEDEADYYCSSYTSSSTLYVFGTGTQLTVLTTTPAPRPPTPAPTIASQPLSLRPEACRPAAGGAVHTRGLDFACDIYIWAPLAGTCGVLLLSLVITLYCKRGRKKLLYIFKQPFMRPVQTTQEEDGCSCRFPEEEEGGCELRVKFSRSADAPAYQQGQNQLYNELNLGRREEYDVLDKRRGRDPEMGGKPRRKNPQEGLYNELQKDKMAEAYSEIGMKGERRRGKGHDGLYQGLSTATKDTYDALHMQALPPR	binds
tandem CD19/CD22 CAR construct 174 (other, Distal anti-CD19 scFv, GGGGS, proximal anti-CD22 scFv H/L with short linker; leader 1-21 left out; also called CG#c174; c174) EIVMTQSPATLSLSPGERATLSCRASQDISKYLNWYQQKPGQAPRLLIYHTSRLHSGIPARFSGSGSGTDYTLTISSLQPEDFAVYFCQQGNTLPYTFGQGTKLEIKGGGGSGGGGSGGGGSQVQLQESGPGLVKPSETLSLTCTVSGVSLPDYGVSWIRQPPGKGLEWIGVIWGSETTYYQSSLKSRVTISKDNSKNQVSLKLSSVTAADTAVYYCAKHYYYGGSYAMDYWGQGTLVTVSSGGGGSEVQLQQSGPGLVKPSQTLSLTCAISGDSMLSNSDTWNWIRQSPSRGLEWLGRTYHRSTWYDDYASSVRGRVSINVDTSKNQYSLQLNAVTPEDTGVYYCARVRLQDGNSWSDAFDVWGQGTMVTVSSGGGGSQSALTQPASASGSPGQSVTISCTGTSSDVGGYNYVSWYQQHPGKAPKLMIYDVSNRPSGVSNRFSGSKSGNTASLTISGLQAEDEADYYCSSYTSSSTLYVFGTGTQLTVLTTTPAPRPPTPAPTIASQPLSLRPEACRPAAGGAVHTRGLDFACDIYIWAPLAGTCGVLLLSLVITLYCKRGRKKLLYIFKQPFMRPVQTTQEEDGCSCRFPEEEEGGCELRVKFSRSADAPAYQQGQNQLYNELNLGRREEYDVLDKRRGRDPEMGGKPRRKNPQEGLYNELQKDKMAEAYSEIGMKGERRRGKGHDGLYQGLSTATKDTYDALHMQALPPR	binds
tandem CD22/CD19 CAR construct 181 (other, Distal anti-CD22 scFv H/L, LAEAAAK, proximal anti-CD19 scFv; leader 1-21 left out; also called CG#c181; c181) EVQLQQSGPGLVKPSQTLSLTCAISGDSMLSNSDTWNWIRQSPSRGLEWLGRTYHRSTWYDDYASSVRGRVSINVDTSKNQYSLQLNAVTPEDTGVYYCARVRLQDGNSWSDAFDVWGQGTMVTVSSGGGGSGGGGSGGGGSQSALTQPASASGSPGQSVTISCTGTSSDVGGYNYVSWYQQHPGKAPKLMIYDVSNRPSGVSNRFSGSKSGNTASLTISGLQAEDEADYYCSSYTSSSTLYVFGTGTQLTVLLAEAAAKEIVMTQSPATLSLSPGERATLSCRASQDISKYLNWYQQKPGQAPRLLIYHTSRLHSGIPARFSGSGSGTDYTLTISSLQPEDFAVYFCQQGNTLPYTFGQGTKLEIKGGGGSGGGGSGGGGSQVQLQESGPGLVKPSETLSLTCTVSGVSLPDYGVSWIRQPPGKGLEWIGVIWGSETTYYQSSLKSRVTISKDNSKNQVSLKLSSVTAADTAVYYCAKHYYYGGSYAMDYWGQGTLVTVSSTTTPAPRPPTPAPTIASQPLSLRPEACRPAAGGAVHTRGLDFACDIYIWAPLAGTCGVLLLSLVITLYCKRGRKKLLYIFKQPFMRPVQTTQEEDGCSCRFPEEEEGGCELRVKFSRSADAPAYQQGQNQLYNELNLGRREEYDVLDKRRGRDPEMGGKPRRKNPQEGLYNELQKDKMAEAYSEIGMKGERRRGKGHDGLYQGLSTATKDTYDALHMQALPPR	binds
tandem CD22/CD19 CAR construct 182 (other, Distal anti-CD22 scFv H/L, GGGGS, proximal anti-CD19 scFv; leader 1-21 left out; also called CG#c182; c182) EVQLQQSGPGLVKPSQTLSLTCAISGDSMLSNSDTWNWIRQSPSRGLEWLGRTYHRSTWYDDYASSVRGRVSINVDTSKNQYSLQLNAVTPEDTGVYYCARVRLQDGNSWSDAFDVWGQGTMVTVSSGGGGSGGGGSGGGGSQSALTQPASASGSPGQSVTISCTGTSSDVGGYNYVSWYQQHPGKAPKLMIYDVSNRPSGVSNRFSGSKSGNTASLTISGLQAEDEADYYCSSYTSSSTLYVFGTGTQLTVLGGGGSEIVMTQSPATLSLSPGERATLSCRASQDISKYLNWYQQKPGQAPRLLIYHTSRLHSGIPARFSGSGSGTDYTLTISSLQPEDFAVYFCQQGNTLPYTFGQGTKLEIKGGGGSGGGGSGGGGSQVQLQESGPGLVKPSETLSLTCTVSGVSLPDYGVSWIRQPPGKGLEWIGVIWGSETTYYQSSLKSRVTISKDNSKNQVSLKLSSVTAADTAVYYCAKHYYYGGSYAMDYWGQGTLVTVSSTTTPAPRPPTPAPTIASQPLSLRPEACRPAAGGAVHTRGLDFACDIYIWAPLAGTCGVLLLSLVITLYCKRGRKKLLYIFKQPFMRPVQTTQEEDGCSCRFPEEEEGGCELRVKFSRSADAPAYQQGQNQLYNELNLGRREEYDVLDKRRGRDPEMGGKPRRKNPQEGLYNELQKDKMAEAYSEIGMKGERRRGKGHDGLYQGLSTATKDTYDALHMQALPPR	binds
tandem CD22/CD19 CAR construct 183 (other, Distal anti-CD22 scFv H/L short linker, LAEAAAK, proximal anti-CD19 scFv; leader 1-21 left out; also called CG#c183; c183) EVQLQQSGPGLVKPSQTLSLTCAISGDSMLSNSDTWNWIRQSPSRGLEWLGRTYHRSTWYDDYASSVRGRVSINVDTSKNQYSLQLNAVTPEDTGVYYCARVRLQDGNSWSDAFDVWGQGTMVTVSSGGGGSQSALTQPASASGSPGQSVTISCTGTSSDVGGYNYVSWYQQHPGKAPKLMIYDVSNRPSGVSNRFSGSKSGNTASLTISGLQAEDEADYYCSSYTSSSTLYVFGTGTQLTVLLAEAAAKEIVMTQSPATLSLSPGERATLSCRASQDISKYLNWYQQKPGQAPRLLIYHTSRLHSGIPARFSGSGSGTDYTLTISSLQPEDFAVYFCQQGNTLPYTFGQGTKLEIKGGGGSGGGGSGGGGSQVQLQESGPGLVKPSETLSLTCTVSGVSLPDYGVSWIRQPPGKGLEWIGVIWGSETTYYQSSLKSRVTISKDNSKNQVSLKLSSVTAADTAVYYCAKHYYYGGSYAMDYWGQGTLVTVSSTTTPAPRPPTPAPTIASQPLSLRPEACRPAAGGAVHTRGLDFACDIYIWAPLAGTCGVLLLSLVITLYCKRGRKKLLYIFKQPFMRPVQTTQEEDGCSCRFPEEEEGGCELRVKFSRSADAPAYQQGQNQLYNELNLGRREEYDVLDKRRGRDPEMGGKPRRKNPQEGLYNELQKDKMAEAYSEIGMKGERRRGKGHDGLYQGLSTATKDTYDALHMQALPPR	binds
